# Results as given in publication doi:10.1101/2024.07.03.601791.
# Molecular target: Kapβ2 Δloop (human) (UniProt Q92973)
# Test: AUC
# Kapβ2 Δloop (human), sequence (Q92973 9-898, stated change not applied): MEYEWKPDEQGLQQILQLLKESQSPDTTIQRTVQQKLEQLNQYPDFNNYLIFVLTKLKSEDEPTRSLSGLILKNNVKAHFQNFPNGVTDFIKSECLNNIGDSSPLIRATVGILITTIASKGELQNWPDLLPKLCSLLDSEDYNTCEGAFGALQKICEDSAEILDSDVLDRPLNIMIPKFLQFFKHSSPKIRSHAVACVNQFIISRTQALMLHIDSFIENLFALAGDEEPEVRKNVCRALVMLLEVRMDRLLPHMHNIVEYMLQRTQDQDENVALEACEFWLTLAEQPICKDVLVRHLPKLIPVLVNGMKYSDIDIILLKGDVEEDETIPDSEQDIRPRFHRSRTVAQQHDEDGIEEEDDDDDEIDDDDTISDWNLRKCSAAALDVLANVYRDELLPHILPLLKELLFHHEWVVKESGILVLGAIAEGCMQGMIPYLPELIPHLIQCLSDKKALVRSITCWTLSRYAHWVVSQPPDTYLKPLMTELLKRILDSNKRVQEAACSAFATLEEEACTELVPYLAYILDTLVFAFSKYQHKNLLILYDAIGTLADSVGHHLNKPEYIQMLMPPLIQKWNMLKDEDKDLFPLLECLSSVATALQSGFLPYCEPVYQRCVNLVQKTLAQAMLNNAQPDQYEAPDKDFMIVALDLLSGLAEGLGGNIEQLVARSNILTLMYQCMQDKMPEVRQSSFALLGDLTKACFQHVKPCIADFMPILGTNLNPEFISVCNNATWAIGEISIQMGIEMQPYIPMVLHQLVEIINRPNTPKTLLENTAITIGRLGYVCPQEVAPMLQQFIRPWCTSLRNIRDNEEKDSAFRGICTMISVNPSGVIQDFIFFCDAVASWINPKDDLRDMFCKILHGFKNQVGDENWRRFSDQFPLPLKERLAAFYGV
binder,measurement,value
PRPRPRPRPRPRPRPRPRPRPRPRPRPRPRPRPRPR [maltose-binding protein (MBP)-PR18],stoichiometry N,1
